For experiment [1], the target named is T1, hVISTA-ECD 6-His tag (human, UniProt Q9H7M9 33-193).
T1 construct: also called monovalent hVISTA-ECD; human VISTA
Put plainly: SPR, Ab on Protein A, hVISTA analyte, pH 6.9. On the procedure:
(§1) Further binding kinetic experiments were performed at various pHs on VISTA antibodies described herein by SPR as generally described in Example 9 above. Antibodies were normalized to 50 nM concentration in PBST pH 7.4 and captured on a Protein A CM5 chip (ID 4931) by injecting for 45 seconds at a 5 µL/min flow rate. An 8-point human VISTA titration ([…]) was prepared in PBST at pH 7.4, 6.9, 6.45, and 6.0. Titrations were injected over the captured antibodies for 180 seconds at 30 µL/min. Sensorgrams were fit to a 1:1 binding model in T200 evaluation software and the kinetic constants were reported.
(§2) Each table reports the data at one of the four tested pHs (7.4, 6.9, 6.45, and 6.0, respectively). The 8-point hVISTA titration used in these assays was chosen to provide increased confidence in kinetic values reported at neutral pH conditions. A relatively stringent cutoff for non-binding was applied in this assay. Certain progeny of P1-061029 antibody (P1-068757, ‘759, ‘765, ‘771, and ‘775) show no binding to hVISTA at micromolar concentrations at pH 7.4, while ‘761 and ‘767 show no binding to hVISTA at 100 nM at pH 7.4 but do show binding to hVISTA at micromolar concentrations.
Background: In SPR one partner is held on a chip, and binding of the other changes the refractive index at the surface.

The target in experiment [2] is T1, hVISTA-ECD 6-His tag. As to the kind of experiment: SPR, Ab on Protein A, hVISTA analyte, pH 6.0.
The target in experiment [3] is T1, hVISTA-ECD 6-His tag. Put plainly: SPR, Ab on Protein A, hVISTA analyte, pH 6.45.
Experiment [4] deals with T1, hVISTA-ECD 6-His tag. Put plainly: SPR; KD at pH 6.9 over KD at pH 6.0 (head prints 7.4). How it is done: as §1, §2
For experiment [5], the target named is T1, hVISTA-ECD 6-His tag. As to the kind of experiment: SPR; kd at pH 6.9 over kd at pH 6.0 (head prints 7.4). On the procedure:
as §1, §2

The target of experiment [6] is T1, hVISTA-ECD 6-His tag. As to the kind of experiment: SPR; KD at pH 6.45 over KD at pH 6.0 (head prints 7.4).
For experiment [7], the target named is T1, hVISTA-ECD 6-His tag. Put plainly: SPR; kd at pH 6.45 over kd at pH 6.0 (head prints 7.4). On the procedure:
as §1, §2

T1 sequence (Q9H7M9 other isoform, or with tags, fused parts or gaps limits assumed): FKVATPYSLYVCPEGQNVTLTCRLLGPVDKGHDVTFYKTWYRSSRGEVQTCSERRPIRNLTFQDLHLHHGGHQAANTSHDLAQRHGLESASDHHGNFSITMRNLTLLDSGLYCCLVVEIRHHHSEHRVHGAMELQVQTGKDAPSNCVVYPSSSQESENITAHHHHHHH

B1: P1-070864 (P1-068761_E30D) (antibody, human IgG1, kappa, V domains shown)
VH: EVQLVESGGGLVQPGKSLRLSCAASGFTLDDEAMHWVRQAPGKGLEWVSGINWNSEEIGYADSVKGRFTISRDNAKNSLYLQMNSLRTEDTALYYCAKVPGYSHGWIDAEDVWGQGTMVTVSS
VL: not shown
notes: also called P1-070864-3
With B1, the Kd with hVISTA-ECD 6-His tag [1] is 8100 nM; with hVISTA-ECD 6-His tag [2] it was 15 nM; with hVISTA-ECD 6-His tag [3], 110 nM. Besides, the koff with hVISTA-ECD 6-His tag [1] was determined as 0.034 s⁻¹; in the experiment with hVISTA-ECD 6-His tag [2] it was 0.0068 s⁻¹; with hVISTA-ECD 6-His tag [3], 0.046 s⁻¹. Further, the kon is 4200 M⁻¹ s⁻¹ with hVISTA-ECD 6-His tag [1], 440000 M⁻¹ s⁻¹ with hVISTA-ECD 6-His tag [2] and 410000 M⁻¹ s⁻¹ with hVISTA-ECD 6-His tag [3]. Moreover, the “7.4 KD/ 6.0 KD” value was determined as 523 with hVISTA-ECD 6-His tag [4] and 7.4 in the experiment with hVISTA-ECD 6-His tag [6]. For the same molecule, the “7.4 kd/ 6.0 kd” value with hVISTA-ECD 6-His tag [5] is 4.9; with hVISTA-ECD 6-His tag [7], 6.8.

B2: P1-070906 (P1-068767_D52N) (antibody, human IgG1, kappa, V domains shown)
VH: EVQLVESGGGLVQPGKSLRLSCAASGFTLEDYAMHWVRQAPGKGLEWVSGINWNSENIGYADSVKGRFTISRDNAKNSLYLQMNSLRTEDTALYYCAKVPGYSGGWIDAEDDWGQGTMVTVSS
VL: not shown
notes: also called P1-070906-6
Take B2: the equilibrium dissociation constant (Kd) was 220 nM with hVISTA-ECD 6-His tag [1], 6 nM with hVISTA-ECD 6-His tag [2] and 31 nM in the experiment with hVISTA-ECD 6-His tag [3]. The koff with hVISTA-ECD 6-His tag [1] amounted to 0.0084 s⁻¹; with hVISTA-ECD 6-His tag [2], 0.0019 s⁻¹; with hVISTA-ECD 6-His tag [3], 0.0039 s⁻¹. The kon in the experiment with hVISTA-ECD 6-His tag [1] is 38000 M⁻¹ s⁻¹; with hVISTA-ECD 6-His tag [2], 310000 M⁻¹ s⁻¹; with hVISTA-ECD 6-His tag [3] it was 130000 M⁻¹ s⁻¹. Besides, the “7.4 KD/ 6.0 KD” value with hVISTA-ECD 6-His tag [4] was determined as 36.5; with hVISTA-ECD 6-His tag [6], 5.1. For the same molecule, the “7.4 kd/ 6.0 kd” value in the experiment with hVISTA-ECD 6-His tag [5] worked out at 4.4; with hVISTA-ECD 6-His tag [7], 2.1.

B3: P1-070870 (P1-068761_E56N) (antibody, human IgG1, kappa, V domains shown)
VH: EVQLVESGGGLVQPGKSLRLSCAASGFTLEDEAMHWVRQAPGKGLEWVSGINWNSENIGYADSVKGRFTISRDNAKNSLYLQMNSLRTEDTALYYCAKVPGYSHGWIDAEDVWGQGTMVTVSS
VL: not shown
notes: also called P1-070870-3
As to B3, the Kd with hVISTA-ECD 6-His tag [1] came out at 10000 nM; with hVISTA-ECD 6-His tag [2], 32 nM; in the experiment with hVISTA-ECD 6-His tag [3] it was 150 nM. The koff with hVISTA-ECD 6-His tag [1] stood at 0.049 s⁻¹; in the experiment with hVISTA-ECD 6-His tag [2], 0.0063 s⁻¹; in the experiment with hVISTA-ECD 6-His tag [3], 0.012 s⁻¹. The kon in the experiment with hVISTA-ECD 6-His tag [1] was determined as 4900 M⁻¹ s⁻¹; in the experiment with hVISTA-ECD 6-His tag [2] it was 200000 M⁻¹ s⁻¹; with hVISTA-ECD 6-His tag [3], 80000 M⁻¹ s⁻¹. In addition, the “7.4 KD/ 6.0 KD” value in the experiment with hVISTA-ECD 6-His tag [4] worked out at 316; with hVISTA-ECD 6-His tag [6], 4.6. The “7.4 kd/ 6.0 kd” value with hVISTA-ECD 6-His tag [5] turned out to be 7.9; in the experiment with hVISTA-ECD 6-His tag [7], 1.9.

B4: P1-070878 (P1-068761_E55A_E56N) (antibody, human IgG1, kappa, V domains shown)
VH: EVQLVESGGGLVQPGKSLRLSCAASGFTLEDEAMHWVRQAPGKGLEWVSGINWNSANIGYADSVKGRFTISRDNAKNSLYLQMNSLRTEDTALYYCAKVPGYSHGWIDAEDVWGQGTMVTVSS
VL: not shown
notes: also called P1-070878-3
As for B4, the Kd with hVISTA-ECD 6-His tag [1] came to 9800 nM; with hVISTA-ECD 6-His tag [2], 33 nM; with hVISTA-ECD 6-His tag [3], 160 nM. The koff in the experiment with hVISTA-ECD 6-His tag [1] was 0.028 s⁻¹; with hVISTA-ECD 6-His tag [2], 0.0063 s⁻¹; with hVISTA-ECD 6-His tag [3] it was 0.012 s⁻¹. Also, the kon with hVISTA-ECD 6-His tag [1] was determined as 2900 M⁻¹ s⁻¹; with hVISTA-ECD 6-His tag [2], 190000 M⁻¹ s⁻¹; with hVISTA-ECD 6-His tag [3], 78000 M⁻¹ s⁻¹. Moreover, the “7.4 KD/ 6.0 KD” value amounted to 301 in the experiment with hVISTA-ECD 6-His tag [4] and 4.9 with hVISTA-ECD 6-His tag [6]. For the same molecule, the “7.4 kd/ 6.0 kd” value with hVISTA-ECD 6-His tag [5] is 4.5; with hVISTA-ECD 6-His tag [7], 2.

B5: P1-070868 (P1-068761_E55A) (antibody, human IgG1, kappa, V domains shown)
VH: EVQLVESGGGLVQPGKSLRLSCAASGFTLEDEAMHWVRQAPGKGLEWVSGINWNSAEIGYADSVKGRFTISRDNAKNSLYLQMNSLRTEDTALYYCAKVPGYSHGWIDAEDVWGQGTMVTVSS
VL: not shown
notes: also called P1-070868-6
For B5, the Kd in the experiment with hVISTA-ECD 6-His tag [1] was 6700 nM; with hVISTA-ECD 6-His tag [2], 5.4 nM; with hVISTA-ECD 6-His tag [3] it was 36 nM. The koff came out at 0.015 s⁻¹ with hVISTA-ECD 6-His tag [1], 0.0023 s⁻¹ with hVISTA-ECD 6-His tag [2] and 0.0087 s⁻¹ with hVISTA-ECD 6-His tag [3]. The kon in the experiment with hVISTA-ECD 6-His tag [1] is 2300 M⁻¹ s⁻¹; in the experiment with hVISTA-ECD 6-His tag [2], 430000 M⁻¹ s⁻¹; in the experiment with hVISTA-ECD 6-His tag [3], 240000 M⁻¹ s⁻¹. Also, the entries for the “7.4 KD/ 6.0 KD” value with hVISTA-ECD 6-His tag [4] and with hVISTA-ECD 6-His tag [6] were 1240 and 6.7, respectively. Besides, the “7.4 kd/ 6.0 kd” value was found to be 6.5 with hVISTA-ECD 6-His tag [5] and 3.7 with hVISTA-ECD 6-His tag [7].

The term Kd denotes the concentration at which binding is half-saturated. As usually defined, the koff is the first-order rate constant of dissociation. The term kon denotes a measure of how fast the partners come together. Higher therefore signals fast association.

These data come from patent US20230192860A1 (Bristol-Myers Squibb, published 2023).
